Values of other authors as cited in PMC6699087.
pKd: −log10 of the molar value.

Target: Hsp90 (Homo sapiens) (UniProt P08238)
Sequence of UniProt P08238 (P08238 2-724): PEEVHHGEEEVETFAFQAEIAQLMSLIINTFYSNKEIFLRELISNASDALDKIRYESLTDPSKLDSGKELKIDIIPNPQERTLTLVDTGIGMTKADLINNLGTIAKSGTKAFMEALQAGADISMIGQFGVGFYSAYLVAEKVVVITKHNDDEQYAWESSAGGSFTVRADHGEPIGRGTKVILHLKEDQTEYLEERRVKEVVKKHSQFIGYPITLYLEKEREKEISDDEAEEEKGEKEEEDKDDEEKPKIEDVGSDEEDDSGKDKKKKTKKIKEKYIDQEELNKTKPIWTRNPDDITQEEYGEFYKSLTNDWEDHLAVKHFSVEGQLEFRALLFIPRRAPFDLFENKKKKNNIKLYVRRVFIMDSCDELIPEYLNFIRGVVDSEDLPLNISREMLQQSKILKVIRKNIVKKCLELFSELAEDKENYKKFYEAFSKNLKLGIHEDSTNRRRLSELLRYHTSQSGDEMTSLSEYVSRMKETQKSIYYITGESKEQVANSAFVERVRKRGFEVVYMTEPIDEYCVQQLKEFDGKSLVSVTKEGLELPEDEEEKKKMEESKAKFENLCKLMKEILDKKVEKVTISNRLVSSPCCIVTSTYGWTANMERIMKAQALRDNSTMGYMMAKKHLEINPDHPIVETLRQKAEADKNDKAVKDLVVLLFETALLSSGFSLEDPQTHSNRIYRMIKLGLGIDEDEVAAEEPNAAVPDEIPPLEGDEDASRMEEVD

## Aha1 (from UniProt O95433)
  pKd: 6.30
